Article PMC7534798

T1: SPRTN-EQ (human, UniProt Q9H040 1-489, E112Q)
T1 sequence: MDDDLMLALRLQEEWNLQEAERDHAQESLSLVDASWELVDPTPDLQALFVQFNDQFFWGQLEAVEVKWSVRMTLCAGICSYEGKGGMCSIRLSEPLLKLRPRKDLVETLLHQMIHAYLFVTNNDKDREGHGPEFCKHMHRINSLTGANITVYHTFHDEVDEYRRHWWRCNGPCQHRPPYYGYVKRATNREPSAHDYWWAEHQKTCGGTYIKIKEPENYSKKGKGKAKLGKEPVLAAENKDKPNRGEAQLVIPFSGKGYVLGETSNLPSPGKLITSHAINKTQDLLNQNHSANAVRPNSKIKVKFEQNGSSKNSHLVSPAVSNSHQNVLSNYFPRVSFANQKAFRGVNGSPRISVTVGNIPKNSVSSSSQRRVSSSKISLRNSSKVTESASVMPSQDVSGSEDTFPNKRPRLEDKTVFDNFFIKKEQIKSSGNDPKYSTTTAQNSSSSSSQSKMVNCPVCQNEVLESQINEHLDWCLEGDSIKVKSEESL

T2: SPRTN ZBD (human, UniProt Q9H040 151-215)
T2 sequence: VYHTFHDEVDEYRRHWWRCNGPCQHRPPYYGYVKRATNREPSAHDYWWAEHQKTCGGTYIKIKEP

T3: SPRTN ZBD-BR (human, UniProt Q9H040 151-245)
T3 sequence: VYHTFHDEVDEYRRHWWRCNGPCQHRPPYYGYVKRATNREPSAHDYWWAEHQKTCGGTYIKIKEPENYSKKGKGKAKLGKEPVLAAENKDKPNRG

B1: ss/dsDNA junction DPC (C3A11XA12C3 + 15-mer) (mixed)
DNA 1: CCCAAAAAAAAAAATAAAAAAAAAAAACCC
DNA 2: GGGTTTTTTTTTTTT
modifications: T15 is SH-C9-dT crosslinked to protein G; 3' phosphate on strand 1
B2: internal DPC dsDNA (X15) (dsDNA)
DNA 1: ACCAGTGCCTTGCTTGGACATCTTTGCCCA
DNA 2: TGGGCAAAGATGTCCAAGCAAGGCACTGGT
modifications: T15 is SH-C9-dT crosslinked to protein G; 3' phosphate on strand 1
B3: dsDNA DPC (C3A11XA12C3 + 30-mer) (dsDNA)
DNA 1: CCCAAAAAAAAAAATAAAAAAAAAAAACCC
DNA 2: GGGTTTTTTTTTTTTATTTTTTTTTTTGGG
modifications: T15 is SH-C9-dT crosslinked to protein G; 3' phosphate on strand 1

Target: T1, SPRTN-EQ
Assay: EMSA

Binding result, binds:
B1
B2
GATGTCCTAGCAAGG (structured_DNA) [15-mer hairpin (oJS_106)]
TCCAGTGCCTTGCTAGGACATCTTTGCCCA (ssDNA, T1 is SH-C9-dT crosslinked to protein G; 3' phosphate) [5' DPC ss (X1)]
ACCAGTGCCTTGCTTGGACATCTTTGCCCA (ssDNA, T15 is SH-C9-dT crosslinked to protein G; 3' phosphate) [internal DPC ss (X15)]
ACCAGTGCCTTGCTAGGACATCTTTGCCCT (ssDNA, T30 is SH-C9-dT crosslinked to protein G; 3' phosphate) [3' DPC ss (X30)]
B3

Target: T2, SPRTN ZBD
Assay: NMR

Binding result, binds:
AAAAAAAAAAAAAAA (ssDNA) [poly(dA) 15-mer]

Target: T3, SPRTN ZBD-BR
Assay: NMR

Binding result, binds:
AAAAAAAAAAAAAAA (ssDNA) [poly(dA) 15-mer]
